Consider three molecules from patent publication US20220041738A1 (SAITAMA MEDICAL UNIVERSITY, published 2022).

Positions count from the first letter of the chain named.

First the molecules themselves.
T1: human ALK2 extracellular domain with C-terminal His tag (E. coli) (human, UniProt Q04771 21-123)
T1 construct: Expressed in E. coli SHuffle T7, purified to a single band of 12 kDa; also called ALK2-ECD; human ALK2-ECD; not shown: C-terminal His tag from pET-28b(+)
T1 sequence: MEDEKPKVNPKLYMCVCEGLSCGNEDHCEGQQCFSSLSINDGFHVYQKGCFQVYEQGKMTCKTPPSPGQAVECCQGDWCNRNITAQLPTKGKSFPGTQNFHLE

B1: humanized hA2-27D-H2/L2 (IgG1 LALA) (antibody)
heavy: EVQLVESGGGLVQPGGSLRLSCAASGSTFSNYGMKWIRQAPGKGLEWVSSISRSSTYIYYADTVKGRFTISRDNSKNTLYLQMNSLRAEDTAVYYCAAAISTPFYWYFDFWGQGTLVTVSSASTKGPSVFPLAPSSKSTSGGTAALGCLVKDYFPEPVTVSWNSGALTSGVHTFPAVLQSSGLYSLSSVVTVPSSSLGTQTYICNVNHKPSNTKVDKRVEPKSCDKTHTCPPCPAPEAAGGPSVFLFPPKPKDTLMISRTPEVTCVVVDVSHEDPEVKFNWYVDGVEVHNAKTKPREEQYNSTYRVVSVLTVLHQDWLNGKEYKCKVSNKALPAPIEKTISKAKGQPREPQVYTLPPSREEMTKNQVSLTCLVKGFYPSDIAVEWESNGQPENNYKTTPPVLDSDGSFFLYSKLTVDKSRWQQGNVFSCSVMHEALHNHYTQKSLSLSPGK
light: EIVLTQSPGTLSLSPGERATLSCLASSSVSYMTWYQQKPGQSPRLWIYGTSNLASGVPDRFSGSGSGTDFTLTISRLEPEDFAVYYCLHLTSYPPYTFGQGTKVEIKRAVAAPSVFIFPPSDEQLKSGTASVVCLLNNFYPREAKVQWKVDNALQSGNSQESVTEQDSKDSTYSLSSTLTLSKADYEKHKVYACEVTHQGLSSPVTKSFNRGEC
notes: also called humanized A2-27D-H2/L2 (IgG1 LALA); humanized A2-27D antibody (LALA)
B2: humanized hA2-27D-H3/L4 (IgG1 LALA) (antibody)
heavy: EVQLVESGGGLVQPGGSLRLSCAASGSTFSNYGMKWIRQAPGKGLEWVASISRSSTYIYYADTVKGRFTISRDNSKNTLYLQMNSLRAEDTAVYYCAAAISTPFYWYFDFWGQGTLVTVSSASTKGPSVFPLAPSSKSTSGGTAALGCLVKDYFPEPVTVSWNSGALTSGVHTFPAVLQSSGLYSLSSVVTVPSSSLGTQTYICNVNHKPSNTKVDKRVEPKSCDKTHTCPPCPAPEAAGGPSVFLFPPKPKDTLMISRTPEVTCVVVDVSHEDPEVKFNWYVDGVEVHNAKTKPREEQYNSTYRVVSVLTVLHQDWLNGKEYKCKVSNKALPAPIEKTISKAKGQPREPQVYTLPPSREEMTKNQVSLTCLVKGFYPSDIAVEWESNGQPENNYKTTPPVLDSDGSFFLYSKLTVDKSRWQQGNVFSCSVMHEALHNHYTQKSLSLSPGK
light: B1 light with L11M, L13A, A19V, Q41A, F70Y, L77M, V84T, Q100A, V104L, I106L
B3: humanized hA2-15A-H4/L6 (IgG2) (antibody)
heavy: EVQLVESGGGLVQPGGSLRLSCAASGFTFSHYYMAWVRQAPGKGLEWVASITNSGGSINYRDSVKGRFTISRDNAKSTLYLQMNSLRAEDTATYYCTREGGENYGGYPPFAYWGQGTLVTVSSASTKGPSVFPLAPCSRSTSESTAALGCLVKDYFPEPVTVSWNSGALTSGVHTFPAVLQSSGLYSLSSVVTVPSSNFGTQTYTCNVDHKPSNTKVDKTVERKCCVECPPCPAPPVAGPSVFLFPPKPKDTLMISRTPEVTCVVVDVSHEDPEVQFNWYVDGVEVHNAKTKPREEQFNSTFRVVSVLTVVHQDWLNGKEYKCKVSNKGLPAPIEKTISKTKGQPREPQVYTLPPSREEMTKNQVSLTCLVKGFYPSDIAVEWESNGQPENNYKTTPPMLDSDGSFFLYSKLTVDKSRWQQGNVFSCSVMHEALHNHYTQKSLSLSPGK
light: DIVLTQSPDSLAVSLGERATINCRANQGVSLSRYNLMHWYQQKPGQKPKLLIYRSSNLAQGIPARFSGSGSGTDFTLTISSVQADDIAVYYCQQSRESPFTFGQGTKLELKRAVAAPSVFIFPPSDEQLKSGTASVVCLLNNFYPREAKVQWKVDNALQSGNSQESVTEQDSKDSTYSLSSTLTLSKADYEKHKVYACEVTHQGLSSPVTKSFNRGEC
notes: Human IgG2, kappa; also called humanized A2-15A-H4/L6 (IgG2); humanized A2-15A antibody (IgG2)

The target of the experiment is T1, human ALK2 extracellular domain with …. In words: SPR, Biacore T200; antibody captured by anti-human IgG (Fc), antigen as analyte; 1:1 binding model. As for the experimental part:
The dissociation constants of humanized hA2-15A-H4/L6 (IgG2) prepared in Example 11)-4, and humanized hA2-27D-H2/L2 (IgG1 LALA) and humanized hA2-27D-H3/L4 (IgG1 LALA) prepared in Example 12)-4 for the antigen (human ALK2 extracellular domain prepared in Example 14)-1) were measured using Biacore T200 (GE Healthcare Bio-Sciences Corp., Japan) by the capture method which involves capturing each antibody as a ligand onto an immobilized anti-human IgG (Fc) antibody and assaying the antigen as an analyte. Approximately 1000 RU of the anti-human IgG (Fc) antibody (Human Antibody Capture kit, GE Healthcare Bio-Sciences Corp.) was covalently bound to a sensor chip CM5 (GE Healthcare Bio-Sciences Corp.) by the amine coupling method. Similarly, this antibody was immobilized onto a reference cell. The running buffer used was HBS-EP+(10 mM HEPES (pH 7.4), 0.15 M NaCl, 3 mM EDTA, and 0.05% Surfactant P20). The antibody was added onto the anti-human IgG (Fc) antibody-immobilized chip for approximately 1 minute. Then, serially diluted solutions (0.78 to 200 nM) of the antigen were added thereto at a flow rate of 30 μl/min for 300 seconds. Subsequently, the dissociation phase was monitored for 600 seconds. A 3 M magnesium chloride solution was added thereto as a regenerating solution at a flow rate of 10 μl/min for 30 seconds. The data was analyzed using 1:1 binding models of analytical software (BIAevaluation software, version 1.0) to calculate an association rate constant ka, a dissociation rate constant kd, and a dissociation constant (KD; KD=kd/ka).
Molecule B1 registered a dissociation constant Kd of 0.0136 µM. In turn, B2 registered a Kd of 0.0133 µM.

For the molecule B3, binding was put at a Kd of 0.0174 µM.
